This is an account of results in the nanobody polyreactivity screen of Harvey et al. (2022).

The nature of the data set: yeast display, Sf9 membrane polyspecificity reagent, FACS + sequencing; frameworks hold sequencing errors. A digest of the protocol:
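Nanobodies from a synthetic yeast display library (Saccharomyces cerevisiae BJ5465), induced 36–48 hours with galactose, were stained 1 hour at 4 °C with 10% biotinylated, detergent-solubilized Sf9 membrane reagent, enriched on streptavidin microbeads, then FACS-sorted. Anti-HA (expression) and streptavidin (reagent binding) fluorescence set low and high (top ~1%) gates. Polyreactivity labels come from the gate of origin. Genes were colony-PCR amplified, MiSeq 2 × 250 sequenced and filtered by CDR length.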
“QVQLVESGGGLVQAGGSLRLSCAASGSIFDPYAMGWYRQAPGKERELVAAITASGSSTYYADSVKGRFTISRDNAKNTVYLQMYSLKPEDTAVYYCAADRANWEYLLSWLGYDYWGQGTQVTVSS”: the “polyreactivity (PSR sort gate)” value is “low polyreactivity”.

With “QVQLVESGGGLVQAGGSLRLSCAASGSIFDPYTMGWYRQAPGKERELVAAINWSGGSTYYADSVKGRCTISRDNAKNTVYLQINSLKPEDTAVSHCNADPHGYYGYGYDYWGQGTQVNVSS”, the “polyreactivity (PSR sort gate)” value was “low polyreactivity”.

Regarding “QVQLVESGGGLVQAGGSLRLSCAASGSIFDQYTMGWYRQAPGKARELVAAIRFSGGSTSYADSVKGRFTISRDNAKNTVYLQMISLKPEDTAVYYCNVDAITGGDWEDFDYWGQGTQVTVSS”, the “polyreactivity (PSR sort gate)” value is “low polyreactivity”.

As for “QVQLVESGGGLVQAGGSLRLSCAASGSIFDRNAMGWYRQAPGKERELVAAISRSSGNTYYADSVKGRFTISRDNAKNTVYLQMNSLKPEDTAVYYCAAKPTYPKRYNYWGQGTQVTVSS”, the “polyreactivity (PSR sort gate)” value is “high polyreactivity”.

Consider “QVQLVESGGGLVQAGGSLRLSCAASGSIFDRNAMGWYRQAPGKERELVSAINSNGGITYYADSVKGRFTISRDNAKNTVYLQMNSLKPEDTAVYYCAAVIRVVYREDHCGQGTQVTVSS”, for which the “polyreactivity (PSR sort gate)” value is on record as “low polyreactivity”.

Consider “QVQLVESGGGLVQAGGSLRLSCAASGSIFDRYAMGWYRQAPGKERELVAAISTGGSTNYADSVKGRFTISRDNAKNSVYLQMNSLKPEDTAVYYCAARYLYRMYYWGQGTQVTVSS”, for which the “polyreactivity (PSR sort gate)” value is recorded as “low polyreactivity”.

For “QVQLVESGGGLVQAGGSLRLSCAASGSIFDRYAMGWYRQAPGKERELVAAITTSGGSTSYADSVKGRYTISRDNAKNTVYLQMNSLIPEDTAVYYCAAGYDYVFAFLNEYDYWGQGTQVTVSS”, the “polyreactivity (PSR sort gate)” value is “low polyreactivity”.

“QVQLVESGGGLVQAGGSLRLSCAASGSIFDRYDMGWYRQAPGKERELVAVINWSGGTTYYADSVKGRFTISRDNAKNTVYLQMNSLKPEDTAVYYCAADGSKPYAMDYWGQGTQVTVSS”: the “polyreactivity (PSR sort gate)” value is “high polyreactivity”.

In the case of “QVQLVESGGGLVQAGGSLRLSCAASGSIFDSNAMGWYRQAPGKERELVASITSDGDTYYADSVKGRFTISRDNAKNTVYLQMNSLKPEDTAVYYCAAYVPYSGLDYWGQGTQVTVSS”, the “polyreactivity (PSR sort gate)” value is reported as “low polyreactivity”.

In the case of “QVQLVESGGGLVQAGGSLRLSCAASGSIFDSNAMGWYRQAPGKERELVASITSDGDTYYADSVKGRFTISRDNAKNTVYLQMNSLKPEVTAVYYCAAYVPYSGLDYWGQGTQVTVSS”, the “polyreactivity (PSR sort gate)” value is “low polyreactivity”.

Turning to “QVQLVESGGGLVQAGGSLRLSCAASGSIFDSYAMGWYRQAPGKERELVAGIRWDSGSTYYADSVKGRFTISRDNAKNTVYLQINSLKPEDTAVYYCAADLFDFLLIDGFAVVTYGYWGQGTQVTVSS”, the “polyreactivity (PSR sort gate)” value was “low polyreactivity”.

For the sequence “QVQLVESGGGLVQAGGSLRLSCAASGSIFDSYAMGWYRQAPGKEWELVAAISGNSDSTYYADSVKGRFTISRDNAKNTVYLQMNSLKPEDTAVYYCAKEGGNGYDYWGQGTQVTVSS”, the “polyreactivity (PSR sort gate)” value was “low polyreactivity”.

Regarding “QVQLVESGGGLVQAGGSLRLSCAASGSIFDTYVMGWYRQAPGKERELVAVISYSGTRTSYADSVKGRFTISRDNAKNTVYLQMNSLKPEDTAVYYCAARVTYYRTYRGRQYGYWGQGTQVTVSS”, the “polyreactivity (PSR sort gate)” value is given as “high polyreactivity”.

For the sequence “QVQLVESGGGLVQAGGSLRLSCAASGSIFDVNAMGWYIQAPGKERELVAAISQRGTRTYYADSVKGRFTISRDNAKNTVYLQMNRLKPEDTAVYYCNRGGWRQYDSWGQGTQVTVSS”, the “polyreactivity (PSR sort gate)” value is “high polyreactivity”.

Take “QVQLVESGGGLVQAGGSLRLSCAASGSIFDVNAMGWYRQAPGKEREMVAAISDSGGSTYYADSVKGRFTISRDNAKNTVYLQMNSLKPEDTAVYYCNAVWSWYNYYDFDYWGQGSQVTVSS”: the “polyreactivity (PSR sort gate)” value is on record as “low polyreactivity”.

Turning to “QVQLVESGGGLVQAGGSLRLSCAASGSIFDVNTMGWYRQAPGKERELVAAITNGYRTNYADSVKGRFTISRDNAKNTVYLQMNILKPEDTSVYYCNTDQGTTSDYCFWGQGTQVTVSS”, the “polyreactivity (PSR sort gate)” value is on record as “low polyreactivity”.

Consider “QVQLVESGGGLVQAGGSLRLSCAASGSIFDVYAMGWSRQAAGTERELVAAIDSGGSSTYYADSVKGRFTISRDNAKNSVYLQMNSLKPEDTAVYYCAARPYYSWNYDYWGQGTQVTVSS”, for which the “polyreactivity (PSR sort gate)” value is listed as “low polyreactivity”.

Take “QVQLVESGGGLVQAGGSLRLSCAASGSIFDYKAMGWYRQAPGKERELFADITISDDSTYYADSVKGRFTISRDNAKNTVYLQMNSLKPEDTAVYYCAADIKYYWYYYYWAYAYDYWGHGTQVTVSS”: the “polyreactivity (PSR sort gate)” value is listed as “high polyreactivity”.

Take “QVQLVESGGGLVQAGGSLRLSCAASGSIFDYNAMGWYRQAPGKERELVAAISSGGSTYYADSVKGRFTISRDNAKNTVYLQMNSLKPEDTEVYYCAVKVWLVIQFDYWGQGTPVTVSS”: the “polyreactivity (PSR sort gate)” value is listed as “low polyreactivity”.

Turning to “QVQLVESGGGLVQAGGSLRLSCAASGSIFDYNAMGWYRQAPGKERELVAAISVSGGSTYYADSVKGRFTISRDNAKNTVYLQMNSLKPEDTAVYYCAAETWTYGWSYDYWGQGTQVTVSS”, the “polyreactivity (PSR sort gate)” value is reported as “high polyreactivity”.

For “QVQLVESGGGLVQAGGSLRLSCAASGSIFDYNAMGWYRQAPGKERELVAAITSTDSTYADSVKGRFTISRDNAKNTVYLQMNSLKPEDTAVYYCAAEDVIYYLTGQWREYDYWGQGTQVTVSS”, the “polyreactivity (PSR sort gate)” value is given as “low polyreactivity”.

“QVQLVESGGGLVQAGGSLRLSCAASGSIFDYNPMGWYTQAPGKERELVADITSGGSTYYADSVKGRFTISRDNAKNTVYLQMNSLKPEDTAVYYCNADDAVEYSYGGGTEFYYWGQGTQVSVSS”: the “polyreactivity (PSR sort gate)” value was “low polyreactivity”.

In the case of “QVQLVESGGGLVQAGGSLRLSCAASGSIFDYNTMGWYRQAPGKERELVAAISSGGSTYYADSVKGRFTISRDNAKNTVYLQMNSLKPEDTAVYYCAARRAGWWGFYYWGQGTQVTVSS”, the “polyreactivity (PSR sort gate)” value is reported as “high polyreactivity”.

As for “QVQLVESGGGLVQAGGSLRLSCAASGSIFDYNTMGWYSQAPGKERELVAAISSGGSTYYADSVKGRFTISRDNAKTTVYLQMKSLKPEDTAVYYCAARRAGWWGFYYWGQGTQVTVSS”, the “polyreactivity (PSR sort gate)” value is “high polyreactivity”.

Regarding “QVQLVESGGGLVQAGGSLRLSCAASGSIFDYNVMGWSRQAPGKERELVAAITYNDGSTYYGDSVKGRFTISRDYAKNTVYLQMNSLKPEDTAVYYCNAEQTPSGLYDYRGVEGEMGYWGQGTQVTVSS”, the “polyreactivity (PSR sort gate)” value is “low polyreactivity”.

On to “QVQLVESGGGLVQAGGSLRLSCAASGSIFDYYAMGWYRQAPGKERELVAAIDSGDITYYADSVKGRFTISRDNAKNTFYLQMNRLKPEDTAVYYCAAEGTGYSVGWQYGYWGQGTQVSVSS”, for which the “polyreactivity (PSR sort gate)” value was “low polyreactivity”.

Turning to “QVQLVESGGGLVQAGGSLRLSCAASGSIFDYYAMGWYRQAPGKERELVATISGGGGTTYYADSVKGRFTISRDTAKNTVYLQMNSLKPEDTAVYYCAADSLGYNYWGQGTQVTVSS”, the “polyreactivity (PSR sort gate)” value is recorded as “low polyreactivity”.

Turning to “QVQLVESGGGLVQAGGSLRLSCAASGSIFDYYAMGWYRQAPGKERELVATISWIGDRTYYADSVKGRFTISRDNAKNTVYLQMNSLKPEDTAVYYCATDYYEDWRGYVDYWYRPYDYWGHGTQVTVSS”, the “polyreactivity (PSR sort gate)” value is listed as “high polyreactivity”.

On to “QVQLVESGGGLVQAGGSLRLSCAASGSIFDYYTMGWYRQAPGKERELVATIRSGDSTNYADSVKGRFTISRDNAKNPVYVQMNSLKPEDTAVYYCAADDGAYPTLYDYWGQGTQVTVSS”, for which the “polyreactivity (PSR sort gate)” value was “low polyreactivity”.

As for “QVQLVESGGGLVQAGGSLRLSCAASGSIFEDYAMGWYRQAPGKERELDAAIDWGDGDTYYADSVKGRFTISRDNAKNSVYLQMNSLKPEDTAVYYCAADLVGYSGDYFDEEYYWGQGTQVTVSS”, the “polyreactivity (PSR sort gate)” value was “high polyreactivity”.

As for “QVQLVESGGGLVQAGGSLRLSCAASGSIFEDYTRGWYRQAPGKERELVAAIDWSDASTFYADSVKGRFTISRDNAKNTVYLQMSLNPEDTAVYYCNVAIIFYDDDYWGQGTQVTVSS”, the “polyreactivity (PSR sort gate)” value is listed as “high polyreactivity”.

“QVQLVESGGGLVQAGGSLRLSCAASGSIFEEYAMGWYRQAPGKERELVARIDESGGSTYYADSVKGRFTISRDNAKNTVYLQMNSLKPEDTAVYYCAAERYSDSWGFYSVDEGSWEMDYWGQGTQVTVSS”: the “polyreactivity (PSR sort gate)” value is on record as “low polyreactivity”.

For the sequence “QVQLVESGGGLVQAGGSLRLSCAASGSIFEFNTMGWYRQAPGKERELVAAISSADTTNYADSVKGRFTISRDNAKNTVYLQMNSLKPEDTAVYYCNKELHLSATLRVLGFDYWGQGTQVTVSS”, the “polyreactivity (PSR sort gate)” value is “low polyreactivity”.

“QVQLVESGGGLVQAGGSLRLSCAASGSIFEGNAMGWYRQAPGKERELVAAISTTGGITYYADSVKGRFTISRDKAKNTVYLQMNSLKPEDTAVYYCAADPSQPRIDSSNYDYWGQGTQVTVSS”: the “polyreactivity (PSR sort gate)” value is recorded as “low polyreactivity”.

Consider “QVQLVESGGGLVQAGGSLRLSCAASGSIFEIYAMGWYRQAPGKERELVAAISWSGGRTYYADSVKGRFTISRDNAKNTVYLQMNSLKPEDTAVYYCNAGQWRYPGLYYYWGQGTEVTVSS”, for which the “polyreactivity (PSR sort gate)” value is reported as “high polyreactivity”.

For “QVQLVESGGGLVQAGGSLRLSCAASGSIFEIYDMGWYRQAPGKERELVASIRTSGGSTYYADSVKGRFTISRDNAKNTVYLQMNSLKPEDTAVYYCATGWSWYHPDYDYWGQGTQVTVSS”, the “polyreactivity (PSR sort gate)” value is “low polyreactivity”.

Turning to “QVQLVESGGGLVQAGGSLRLSCAASGSIFENNAMGWYRQAPGKERELVAAISSDDTTNYADSVKGRFTISRDNAKNTVYLQMNSLKPEDTAVYYCATDYDVYGYPYDYGYWGQGTQVTVSS”, the “polyreactivity (PSR sort gate)” value is given as “low polyreactivity”.

Take “QVQLVESGGGLVQAGGSLRLSCAASGSIFENNAMGWYRQAPGKERELVAAISSDDTTNYADSVKGRFTISRDNAKNTVYLQMNSLKPEDTAVYYCATDYYVYGYPYDYGYWGQGTQVTVSS”: the “polyreactivity (PSR sort gate)” value is “low polyreactivity”.

Consider “QVQLVESGGGLVQAGGSLRLSCAASGSIFENNVMGWYRQAPGKERELVAVISWNGGRTYYADSVKGRFTISRDNAKNTVYLQMNSLKPEDTAVYYCNAQGYFWSESIEYDYWGQGTQVTVSS”, for which the “polyreactivity (PSR sort gate)” value is given as “low polyreactivity”.

For the sequence “QVQLVESGGGLVQAGGSLRLSCAASGSIFEPNAMGRYRQAPGKEREFVAAISGSGGSTYYADSVKGRFTISRDNAKNTVYLQMNSLKPEDTAVYYCATRGKRSYFRTFYYWGEGTQVTVSS”, the “polyreactivity (PSR sort gate)” value was “high polyreactivity”.

For “QVQLVESGGGLVQAGGSLRLSCAASGSIFEPYAMGWYRQAPGKERELVAAIRVSGGSTYYADSVKGRFTISRDNAKNTVYLQMNSLKPEDTAVYYCAADWWSRYYYWGQGTQVTVSS”, the “polyreactivity (PSR sort gate)” value was “high polyreactivity”.
